T1: UbP_C Q219A/I221A (human, UniProt Q8WUN7 129-234, Q219A | I221A)
T1 sequence: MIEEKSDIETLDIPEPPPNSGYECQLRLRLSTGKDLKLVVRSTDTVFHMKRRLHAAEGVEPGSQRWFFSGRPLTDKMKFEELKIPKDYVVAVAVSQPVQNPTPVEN

T2: UbP_C F195A (human, UniProt Q8WUN7 129-234, F195A)
T2 sequence: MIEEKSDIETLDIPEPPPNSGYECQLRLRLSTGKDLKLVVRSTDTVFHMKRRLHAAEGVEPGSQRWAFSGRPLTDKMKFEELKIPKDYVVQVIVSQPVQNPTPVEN

B1: USP5_UBA1 (first UBA domain of USP5, residues 631-692) (domain or fragment)
chain: MLDESVIIQLVEMGFPMDACRKAVYYTGNSGAEAAMNWVMSHMDDPDFANPLILPGSSGPGS

Columns and labels:
Assay in all cases: NMR
UbP_C Q219A/I221A = biological target: T1, UbP_C Q219A/I221A
UbP_C F195A = biological target: T2, UbP_C F195A
[1] = biological target: B1

Kd (UbP_C Q219A/I221A) [µM]	Kd (UbP_C F195A) [µM]	Kd [1] [µM]	Binder
770	> 3000	–	B1
–	–	800	UbP_C (C-terminal part of DC-UbP, residues 129-234), His-tagged (domain or fragment) MIEEKSDIETLDIPEPPPNSGYECQLRLRLSTGKDLKLVVRSTDTVFHMKRRLHAAEGVEPGSQRWFFSGRPLTDKMKFEELKIPKDYVVQVIVSQPVQNPTPVEN

Source: PMC4160250 (2014)
